According to article PMC2735045:

B1: ydeH transcript (-29 to +25) (ssRNA)
RNA: GGGCACAAGGAACUGUGAAAAAGGAGUGGCAAUGAUCAAGAAGACAACGGAAAUUG
B2: ycdT transcript (-36 to +20) (ssRNA)
RNA: GGGAAAGGGAUCUACAACCUACAGAUUGGUGUAGCUUUAUGGAAAAAGACUAUUUGAG

Biological target: CsrA-His6 (Escherichia coli, UniProt P69913 1-61)
Experiment: EMSA

CsrA-His6, sequence (P69913 whole entry): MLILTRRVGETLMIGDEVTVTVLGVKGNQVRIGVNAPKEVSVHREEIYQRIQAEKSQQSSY

Row | Binder | Kd [nM]
1 | B1 | 2.3 ± 0.1
2 | B2 | 2.6 ± 0.3
